Reference: patent US20170157251A1 (MacroGenics, published 2017)

Legend:
Cynomolgus CD19-His = molecular target: T1, Cynomolgus CD19-His (cynomolgus monkey, UniProt A0A2K5W8L9 20-292); test: SPR (BIAcore), comparison of KD against human CD19-His
T1 construct: Soluble antigen in SPR; also called soluble cynomolgus monkey CD19; not shown: His tag
T1 sequence: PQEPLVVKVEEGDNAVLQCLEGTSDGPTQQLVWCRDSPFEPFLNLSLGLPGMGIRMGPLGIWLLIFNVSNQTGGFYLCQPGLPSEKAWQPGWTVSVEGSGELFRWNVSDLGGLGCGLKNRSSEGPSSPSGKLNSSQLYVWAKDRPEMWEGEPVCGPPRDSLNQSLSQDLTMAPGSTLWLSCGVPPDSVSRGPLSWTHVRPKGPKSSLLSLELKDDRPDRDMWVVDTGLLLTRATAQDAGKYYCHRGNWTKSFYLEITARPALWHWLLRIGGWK

[1] = molecular target: T2, soluble human CD19-biotin (human, UniProt P15391 20-291, limits assumed, biotin (site not stated)); test: bifunctional (bispecific) ELISA: plate coated with soluble human CD3ε/δ, DART titrated, detected with soluble human CD19-biotin; the value reflects simultaneous engagement of both antigens
T2 construct: Detection antigen of the bifunctional ELISA
T2 sequence (looked up): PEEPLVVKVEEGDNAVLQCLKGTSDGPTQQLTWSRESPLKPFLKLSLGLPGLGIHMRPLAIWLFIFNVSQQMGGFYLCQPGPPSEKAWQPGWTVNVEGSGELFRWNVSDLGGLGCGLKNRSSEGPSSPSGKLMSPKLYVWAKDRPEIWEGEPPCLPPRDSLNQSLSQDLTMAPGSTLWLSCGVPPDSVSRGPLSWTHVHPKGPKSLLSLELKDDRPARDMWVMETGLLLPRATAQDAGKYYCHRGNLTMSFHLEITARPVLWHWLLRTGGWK

human CD19 on cells [2] = molecular target: T3, human CD19 on cells (human, UniProt P15391 20-556); test: cell-based or functional assay
T3 sequence (looked up): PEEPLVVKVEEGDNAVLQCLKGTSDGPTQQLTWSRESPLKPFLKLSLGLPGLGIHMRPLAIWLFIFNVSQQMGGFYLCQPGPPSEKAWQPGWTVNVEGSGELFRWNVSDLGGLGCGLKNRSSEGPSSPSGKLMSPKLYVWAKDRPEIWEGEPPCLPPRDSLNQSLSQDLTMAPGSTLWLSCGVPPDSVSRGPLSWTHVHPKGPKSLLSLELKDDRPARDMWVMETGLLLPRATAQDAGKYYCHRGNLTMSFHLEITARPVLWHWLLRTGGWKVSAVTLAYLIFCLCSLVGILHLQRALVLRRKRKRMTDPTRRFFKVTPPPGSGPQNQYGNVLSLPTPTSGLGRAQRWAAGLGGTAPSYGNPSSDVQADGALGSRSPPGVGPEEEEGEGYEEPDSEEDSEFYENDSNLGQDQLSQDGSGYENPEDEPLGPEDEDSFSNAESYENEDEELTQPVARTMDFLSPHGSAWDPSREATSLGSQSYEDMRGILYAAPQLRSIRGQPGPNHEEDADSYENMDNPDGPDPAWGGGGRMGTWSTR

human CD19 on cells [3] = molecular target: T3, human CD19 on cells; test: cell-based or functional assay; remark: listed apart in the source
human CD19 on cells [4] = molecular target: T3, human CD19 on cells; test: cell-based or functional assay; remark: listed apart in the source
[5] = molecular target: cynomolgus monkey CD19 on B cells (cynomolgus monkey); test: cell-based or functional assay

B1: DART-A (CD19×CD3 bi-specific monovalent Fc diabody) (bispecific antibody)
chain 1: ENVLTQSPATLSVTPGEKATITCRASQSVSYMHWYQQKPGQAPRLLIYDASNRASGVPSRFSGSGSGTDHTLTISSLEAEDAATYYCFQGSVYPFTFGQGTKLEIKGGGSGGGGEVQLVESGGGLVQPGGSLRLSCAASGFTFSTYAMNWVRQAPGKGLEWVGRIRSKYNNYATYYADSVKGRFTISRDDSKNSLYLQMNSLKTEDTAVYYCVRHGNFGNSYVSWFAYWGQGTLVTVSSASTKGEVAACEKEVAALEKEVAALEKEVAALEKGGGDKTHTCPPCPAPEAAGGPSVFLFPPKPKDTLMISRTPEVTCVVVDVSHEDPEVKFNWYVDGVEVHNAKTKPREEQYNSTYRVVSVLTVLHQDWLNGKEYKCKVSNKALPAPIEKTISKAKGQPREPQVYTLPPSREEMTKNQVSLWCLVKGFYPSDIAVEWESNGQPENNYKTTPPVLDSDGSFFLYSKLTVDKSRWQQGNVFSCSVMHEALHNHYTQKSLSLSPGK
chain 2: QAVVTQEPSLTVSPGGTVTLTCRSSTGAVTTSNYANWVQQKPGQAPRGLIGGTNKRAPWTPARFSGSLLGGKAALTITGAQAEDEADYYCALWYSNLWVFGGGTKLTVLGGGGSGGGGQVTLRESGPALVKPTQTLTLTCTFSGFSLSTSGMGVGWIRQPPGKALEWLAHIWWDDDKRYNPALKSRLTISKDTSKNQVFLTMTNMDPVDTATYYCARMELWSYYFDYWGQGTTVTVSSASTKGKVAACKEKVAALKEKVAALKEKVAALKE
chain 3: not shown
notes: Three covalently bonded chains; one CD19 site and one CD3 site; Fc with L234A/L235A, knob/hole, H435R on third chain; also called CD19×CD3 bi-specific molecule; CD19×CD3 bi-specific DART-A
Cynomolgus CD19-His
  fold lower affinity than for human CD19: ~10 fold
[1]
  EC50 (read off the curve): ~0.08 µg/mL
Human CD19 on cells [2]
  EC50 of redirected killing of Raji/GF cells, 0 nM ibrutinib, CTL assay 24 hours, E:T 10:1: 0.014 ng/mL
  EC50 of redirected killing of Raji/GF cells, 0 nM ibrutinib, CTL assay 48 hours, E:T 10:1: 0.0022 ng/mL
Human CD19 on cells [3]
  EC50 of redirected killing of Raji/GF cells, T cells cultured 24 hours with 0 nM ibrutinib, E:T 10:1, 24 hours: 0.042 ng/mL
  EC50 of redirected killing of Raji/GF cells, T cells cultured 48 hours with 0 nM ibrutinib, E:T 10:1, 24 hours: 0.0016 ng/mL
  EC50 of redirected killing of Raji/GF cells, T cells cultured 72 hours with 0 nM ibrutinib, E:T 10:1, 24 hours: 0.0031 ng/mL
  EC50 of redirected killing of Raji/GF cells, T cells pretreated 24 hours with 25 nM ibrutinib: 0.028 ng/mL
  EC50 of redirected killing of Raji/GF cells, T cells pretreated 24 hours with 250 nM ibrutinib: 0.033 ng/mL
  EC50 of redirected killing of Raji/GF cells, T cells pretreated 24 hours with 750 nM ibrutinib: 0.037 ng/mL
  EC50 of redirected killing of Raji/GF cells, T cells pretreated 24 hours with 2500 nM ibrutinib: 0.104 ng/mL
  EC50 of redirected killing of Raji/GF cells, T cells pretreated 48 hours with 25 nM ibrutinib: 0.0015 ng/mL
  EC50 of redirected killing of Raji/GF cells, T cells pretreated 48 hours with 250 nM ibrutinib: 0.0011 ng/mL
  EC50 of redirected killing of Raji/GF cells, T cells pretreated 48 hours with 750 nM ibrutinib: 0.0012 ng/mL
  EC50 of redirected killing of Raji/GF cells, T cells pretreated 48 hours with 2500 nM ibrutinib: 0.0044 ng/mL
  EC50 of redirected killing of Raji/GF cells, T cells pretreated 72 hours with 25 nM ibrutinib: 0.0021 ng/mL
  EC50 of redirected killing of Raji/GF cells, T cells pretreated 72 hours with 250 nM ibrutinib: 0.002 ng/mL
  EC50 of redirected killing of Raji/GF cells, T cells pretreated 72 hours with 750 nM ibrutinib: 0.0018 ng/mL
  EC50 of redirected killing of Raji/GF cells, T cells pretreated 72 hours with 2500 nM ibrutinib: 0.0085 ng/mL
Human CD19 on cells [4]
  EC50 of autologous B cell depletion, human PBMCs, donor Human 5 (E:T = 8:1): 6.27 pM
  EC50 of autologous B cell depletion, human PBMCs, donor Human 6 (E:T = 8:1): 2.75 pM
  EC50 of autologous B cell depletion, human PBMCs, donor Human 7 (E:T = 5:1): 5.52 pM
  EC50 of autologous B cell depletion, human PBMCs, donor Human 8 (E:T = 9:1): 1.84 pM
  mean EC50 of autologous B cell depletion, human PBMCs: 4.2 pM
[5]
  EC50 of autologous B cell depletion, cynomolgus monkey PBMCs, donor Cyno 5 (E:T = 3:1): 166 pM
  EC50 of autologous B cell depletion, cynomolgus monkey PBMCs, donor Cyno 6 (E:T = 2:1): 859 pM
  EC50 of autologous B cell depletion, cynomolgus monkey PBMCs, donor Cyno 7 (E:T = 3:1): 107 pM
  EC50 of autologous B cell depletion, cynomolgus monkey PBMCs, donor Cyno 8 (E:T = 7:1): 239 pM
  mean EC50 of autologous B cell depletion, cynomolgus monkey PBMCs: 343 pM
